Read-outs that look alike come from different tables or passages of the source. Bridges are numbered along the chain shown (N, C = ends). [ ]: non-standard residue; d: D form. dPhe(4-F) = N[C@H](Cc1ccc(F)cc1)C(=O)O; Nle = CCCC[C@H](N)C(=O)O

What all share (assay): cell-based or functional assay
For test [1], the target named is T1, melanocortin receptor-1 (MC1r), native on the mouse B16-F10 cell line (mouse, UniProt Q01727 1-315).
In test [2] the target is T2, human melanocortin receptor-5 (MC5), on CHO-K1 cells, CEREP assay 1869 (human, UniProt P33032 1-325).
T2 sequence (P33032 whole entry): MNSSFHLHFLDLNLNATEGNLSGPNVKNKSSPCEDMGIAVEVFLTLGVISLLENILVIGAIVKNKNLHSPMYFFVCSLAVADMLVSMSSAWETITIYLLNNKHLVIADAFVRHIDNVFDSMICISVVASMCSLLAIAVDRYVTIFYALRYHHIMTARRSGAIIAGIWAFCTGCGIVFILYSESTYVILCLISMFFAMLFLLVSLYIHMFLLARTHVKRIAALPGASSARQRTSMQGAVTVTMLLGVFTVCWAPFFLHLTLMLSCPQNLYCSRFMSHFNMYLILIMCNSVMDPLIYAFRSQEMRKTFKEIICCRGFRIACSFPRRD
Test [3] deals with T3, melanocortin receptor-4 (MC4r), recombinant on HEK-293 cells (human, UniProt P32245 1-332).
T3 sequence (P32245 whole entry): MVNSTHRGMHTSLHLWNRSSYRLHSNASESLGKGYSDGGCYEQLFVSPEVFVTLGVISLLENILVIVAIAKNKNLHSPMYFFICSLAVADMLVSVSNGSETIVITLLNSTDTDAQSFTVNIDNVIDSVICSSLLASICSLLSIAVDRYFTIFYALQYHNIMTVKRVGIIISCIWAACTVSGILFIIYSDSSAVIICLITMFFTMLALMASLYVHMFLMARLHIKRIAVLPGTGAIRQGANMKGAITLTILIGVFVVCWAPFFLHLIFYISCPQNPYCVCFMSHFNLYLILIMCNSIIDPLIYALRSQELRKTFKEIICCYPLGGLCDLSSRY
For test [4], the target named is T4, melanocortin receptor-3 (MC3r), recombinant on HEK-293 cells.
T4 sequence (P41968 whole entry): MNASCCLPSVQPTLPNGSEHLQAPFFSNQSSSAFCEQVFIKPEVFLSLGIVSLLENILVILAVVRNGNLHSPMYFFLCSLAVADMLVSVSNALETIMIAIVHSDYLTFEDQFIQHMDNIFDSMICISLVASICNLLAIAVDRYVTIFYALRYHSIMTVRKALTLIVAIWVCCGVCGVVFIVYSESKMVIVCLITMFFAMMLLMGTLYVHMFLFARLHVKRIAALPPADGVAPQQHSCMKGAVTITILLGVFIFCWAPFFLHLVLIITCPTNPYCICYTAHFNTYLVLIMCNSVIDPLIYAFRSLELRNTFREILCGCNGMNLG
The target in test [5] is T5, melanocortin receptor-1 (MC1r), native on the human HBL cell line (human, UniProt Q01726 1-317).
T5 sequence (Q01726 whole entry): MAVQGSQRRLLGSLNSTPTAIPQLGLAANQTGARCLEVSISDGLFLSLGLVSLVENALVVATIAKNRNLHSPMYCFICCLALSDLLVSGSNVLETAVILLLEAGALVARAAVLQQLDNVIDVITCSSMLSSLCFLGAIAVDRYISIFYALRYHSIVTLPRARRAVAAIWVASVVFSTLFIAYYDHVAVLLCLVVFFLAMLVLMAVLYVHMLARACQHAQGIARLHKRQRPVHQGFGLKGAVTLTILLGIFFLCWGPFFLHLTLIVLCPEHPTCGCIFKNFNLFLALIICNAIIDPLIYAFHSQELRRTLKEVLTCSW
Test [6] concerns the target melanocortin receptor-5 (MC5r), assay other than CEREP.
The target of test [7] is T1, melanocortin receptor-1 (MC1r), native …. This is another data set of the same source.
Test [8] concerns the target T2, human melanocortin receptor-5 (MC5), on …. This is another data set of the same source.
The target in test [9] is T3, melanocortin receptor-4 (MC4r), …. This is another data set of the same source.
The target of test [10] is T4, melanocortin receptor-3 (MC3r), …. The source holds these as a separate data set.
The target in test [11] is T5, melanocortin receptor-1 (MC1r), native …. The source holds these as a separate data set.
For test [12], the target named is melanocortin receptor-5 (MC5r), assay other than CEREP. This is another data set of the same source.
Sequence of melanocortin receptor-5 (MC5r), assay other than CEREP (P33032 whole entry): as the sequence (P33032 whole entry) above

T1 sequence (Q01727 whole entry): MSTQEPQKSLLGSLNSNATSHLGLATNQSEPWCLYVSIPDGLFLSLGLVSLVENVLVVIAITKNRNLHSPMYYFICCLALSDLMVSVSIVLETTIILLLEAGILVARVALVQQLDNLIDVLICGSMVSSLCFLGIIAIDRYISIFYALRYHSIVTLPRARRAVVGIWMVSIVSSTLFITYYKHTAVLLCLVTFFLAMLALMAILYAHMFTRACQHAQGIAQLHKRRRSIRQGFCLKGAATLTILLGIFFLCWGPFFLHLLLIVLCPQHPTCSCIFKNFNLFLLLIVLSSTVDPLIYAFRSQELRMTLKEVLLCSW

B1: Peptide No. 60, Ac-Nle-cyclo(Glu-His-D-Phe(4-F)-Arg-Trp-NH-(CH2)4-NH) (peptide)
peptide: Ac-[Nle]EH[dPhe(4-F)]RW
modifications: bridge 2-C; not fully specified (C-terminus, bridges); printed as Ac-Nle-cyclo(Glu-His-D-Phe(4-F)-Arg-Trp-NH-(CH2)4-NH)
As to B1, the “EC50 (nM), cAMP accumulation” value was 0.02 nM in test [1]; 2 nM in [3]; 0.77 nM in test [4]; 0.13 nM in test [5]; 0.02 nM in [7]; 2 nM in test [9]. Moreover, the results for the “EC50 (nM), cAMP accumulation” value in test [10] and in [11] were 0.77 nM and 0.13 nM, respectively. Moreover, the “Fold Peptide No. 60 More Potent Than Bremelanotide (ratio of EC50 values)” value in test [1] came to 5 fold; in test [3] it was 0.5 fold; in test [4] it was 4 fold; in test [5] it was 0.78 fold; in test [6] it was 22500 fold. Further, the “EC50 (nM), cAMP production, HTRF, CEREP” value in test [2] and in [8] was 0.39 nM each time. Further, in test [2], the “Fold Peptide No. 60 More Potent Than Bremelanotide (ratio of EC50 values, CEREP)” value was more than 25000 fold. The concentration for a half-maximal effect (EC50) in test [6] and in test [12] was 0.15 nM throughout. Besides, the “Fold Peptide No. 60 More Potent Than α-MSH (ratio of EC50 values)” value worked out at 11 fold in [7]; 1.5 fold in test [9]; 3.9 fold in test [10]; 69 fold in test [11]; 686 fold in [12]. In addition, the “Fold Peptide No. 60 More Potent Than α-MSH (ratio of EC50 values, CEREP)” value in test [8] turned out to be 930 fold.

Source of the values: patent publication US12692291 (PALATIN TECHNOLOGIES, dated 2026).
